This note sets out measurements from PMC8254419.

In this assay the target is Aβ_(1-42). Description: thioflavin T fluorescence aggregation kinetics.

Aβ_(1-42) (peptide) registered a k+k2 (product of the rate constants of elongation and secondary nucleation) of 1e+11 M^−3s^−2.
